Measurements: patent EP1506972A1 (Genentech Inc., dated 2005)
Changes are numbered by the printed parent chain.

Key:
Experiment in all cases: competitive phage ELISA, soluble IGFBP-1 vs coated IGFBP-1
[1] = molecular target: T1, IGF-I S33A (G1S-A70V background) displayed on phage (human; bacteriophage M13)
T1 construct: not shown: Display carrier: M13 gene III protein fragment (residues 249-406) and the junction to it
T1 chain: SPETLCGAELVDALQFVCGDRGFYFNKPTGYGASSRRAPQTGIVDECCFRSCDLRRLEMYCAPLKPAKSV

[2] = molecular target: T2, IGF-I L57A (G1S-A70V background) displayed on phage (human; bacteriophage M13)
T2 construct: not shown: M13 gene III fragment (residues 249-406), the display partner, and its junction to IGF-I
T2 chain: T1 chain with A33S, L57A

[3] = molecular target: T3, IGF-I G1S-A70V displayed on phage (fused to M13 gene III protein residues 249-406) (human; bacteriophage M13)
T3 construct: Monovalent display on M13 phagemid particles; template of the alanine scan; also called G1S-A70V IGF-I; wild-type-like IGF-I variant; not shown: Display carrier: M13 gene III protein fragment (residues 249-406) and the junction to it

[4] = molecular target: T4, IGF-I V17A (G1S-A70V background) displayed on phage (human; bacteriophage M13)
T4 construct: not shown: M13 gene III fragment (residues 249-406, display carrier) and the IGF-g3 junction
T4 chain: T1 chain with V17A, A33S

[5] = molecular target: T5, IGF-I P28A (G1S-A70V background) displayed on phage (human; bacteriophage M13)
T5 construct: not shown: Display carrier: M13 gene III protein fragment (residues 249-406) and the junction to it
T5 chain: T1 chain with P28A, A33S

[6] = molecular target: T6, IGF-I Y31A (G1S-A70V background) displayed on phage (human; bacteriophage M13)
T6 construct: not shown: Display carrier: M13 gene III protein fragment (residues 249-406) and the junction to it
T6 chain: T1 chain with Y31A, A33S

[7] = molecular target: T7, IGF-I L10A (G1S-A70V background) displayed on phage (human; bacteriophage M13)
T7 construct: not shown: M13 gene III fragment (residues 249-406, display carrier) and the IGF-g3 junction
T7 chain: T1 chain with L10A, A33S

[8] = molecular target: T8, IGF-I G32A (G1S-A70V background) displayed on phage (human; bacteriophage M13)
T8 construct: not shown: Display carrier: M13 gene III protein fragment (residues 249-406) and the junction to it
T8 chain: T1 chain with G32A, A33S

[9] = molecular target: T9, IGF-I K68A (G1S-A70V background) displayed on phage (human; bacteriophage M13)
T9 construct: not shown: Display carrier: M13 gene III protein fragment (residues 249-406) and its junction to Val70

[10] = molecular target: T10, IGF-I L64A (G1S-A70V background) displayed on phage (human; bacteriophage M13)
T10 construct: not shown: M13 gene III fragment (residues 249-406), the display partner, and its junction to IGF-I
T10 chain: T1 chain with A33S, L64A

[11] = molecular target: T11, IGF-I R55A (G1S-A70V background) displayed on phage (human; bacteriophage M13)
T11 construct: not shown: Display carrier: M13 gene III protein fragment (residues 249-406) and the junction to it
T11 chain: T1 chain with A33S, R55A

[12] = molecular target: T12, IGF-I S69A (G1S-A70V background) displayed on phage (human; bacteriophage M13)
T12 construct: not shown: Display carrier: M13 gene III protein fragment (residues 249-406) and its junction to Val70

[13] = molecular target: T13, IGF-I L54A (G1S-A70V background) displayed on phage (human; bacteriophage M13)
T13 construct: not shown: Display carrier: M13 gene III protein fragment (residues 249-406) and the junction to it
T13 chain: T1 chain with A33S, L54A

[14] = molecular target: T14, IGF-I P63A (G1S-A70V background) displayed on phage (human; bacteriophage M13)
T14 construct: not shown: M13 gene III fragment (residues 249-406), the display partner, and its junction to IGF-I
T14 chain: T1 chain with A33S, P63A

[15] = molecular target: T15, IGF-I F16A (G1S-A70V background) displayed on phage (human; bacteriophage M13)
T15 construct: not shown: M13 gene III fragment (residues 249-406, display carrier) and the IGF-g3 junction
T15 chain: T1 chain with F16A, A33S

[16] = molecular target: T16, IGF-I L5A (G1S-A70V background) displayed on phage (human; bacteriophage M13)
T16 construct: not shown: The display carrier: M13 gene III protein fragment (residues 249-406) and the junction to it
T16 chain: T1 chain with L5A, A33S

[17] = molecular target: T17, IGF-I Y60A (G1S-A70V background) displayed on phage (human; bacteriophage M13)
T17 construct: not shown: M13 gene III fragment (residues 249-406), the display partner, and its junction to IGF-I
T17 chain: T1 chain with A33S, Y60A

[18] = molecular target: T18, IGF-I S1G (single mutant of G1S-A70V) displayed on phage (human; bacteriophage M13, UniProt P05019 49-117)
T18 construct: not shown: Display carrier: M13 gene III protein fragment (residues 249-406) and its junction to Val70

relative IC50 (IC50mut/IC50 G1S-A70V) [1]: 1.1 fold
relative IC50 (IC50mut/IC50 G1S-A70V) [2]: 2.7 fold
relative IC50 (IC50mut/IC50 G1S-A70V) [3]: 1 fold
relative IC50 (IC50mut/IC50 G1S-A70V) [4]: 5.2 fold
relative IC50 (IC50mut/IC50 G1S-A70V) [5]: 1.1 fold
relative IC50 (IC50mut/IC50 G1S-A70V) [6]: 0.8 fold
relative IC50 (IC50mut/IC50 G1S-A70V) [7]: 37.9 fold
relative IC50 (IC50mut/IC50 G1S-A70V) [8]: 1.3 fold
relative IC50 (IC50mut/IC50 G1S-A70V) [9]: 1.3 fold
relative IC50 (IC50mut/IC50 G1S-A70V) [10]: 1.5 fold
relative IC50 (IC50mut/IC50 G1S-A70V) [11]: 1.1 fold
relative IC50 (IC50mut/IC50 G1S-A70V) [12]: 1.6 fold
relative IC50 (IC50mut/IC50 G1S-A70V) [13]: 2.8 fold
relative IC50 (IC50mut/IC50 G1S-A70V) [14]: > 100 fold
relative IC50 (IC50mut/IC50 G1S-A70V) [15]: 7 fold
relative IC50 (IC50mut/IC50 G1S-A70V) [16]: 6.7 fold
relative IC50 (IC50mut/IC50 G1S-A70V) [17]: 0.8 fold
relative IC50 (IC50mut/IC50 G1S-A70V) [18]: 1.4 fold
B1: human IGFBP-1 (other, UniProt P08833 26-259, looked up)
chain: APWQCAPCSAEKLALCPPVSASCSEVTRSAGCGCCPMCALPLGAACGVATARCARGLSCRALPGEQQPLHALTRGQGACVQESDASAPHAAEAGSPESPESTEITEEELLDNFHLMAPSEEDHSILWDAISTYDGSKALHVTNIKKWKEPCRIELYRVVESLAKAQETSGEEISKFYLPNCNKNGFYHSRQCETSMDGEAGLCWCVYPWNGKRIPGSPEIRGDPNCQIYFNVQN
notes: Secreted recombinant protein
